Data: paper PMC8341956

Biological target: nucleosome core particle (recombinant Xenopus laevis histone octamer on 147 bp 601 DNA) (Xenopus laevis)
Experiment: native gel or EMSA; as the gel shift with nucleosome cores (50 nM), at higher concentrations of HMGN1 (methods: 2-800 nM); ESI Fig. S9.3

## full-length recombinant HMGN1 (HMGN1_1–99, unmodified) (natural protein)
  stoichiometry N (HMGN1 molecules per nucleosome): > 2
